This is an account of results in patent US20210355237A1 (RIKEN, published 2021).

Assay [1] deals with feline serum IgE antibody of allergy cases, after heating (feline). Description: IgE ELISA of feline serum on immobilised Dermatophagoides Farinae allergen, 6C12 detection; Allergy case, Cat 2.
Assay [2] has as its target heated (56° C.) Der f 2-IgE antibody in experimental canine serum (canine). Nature of the assay: Der f 2-IgE ELISA, serum after heating, specimen containing non-pathogenic IgE antibody.
Assay [3] concerns the target non-heated Der f 2-IgE antibody in clinical-case serum of allergic dogs (canine). Description: Der f 2-IgE ELISA, serum before heating, specimen containing pathogenic IgE antibody. In general terms: ELISA stands for enzyme-linked immunosorbent assay.
The target in assay [4] is T1, Peptide (-4C) with 6×His tag and GS linker (canine).
T1 construct: 4 amino acids deleted from the C terminal
T1 peptide: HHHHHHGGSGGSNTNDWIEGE
Nature of the assay: ELISA, His-tagged peptide captured by anti-His tag antibody, biotinylated 6C12.

The target in assay [5] is T2, Peptide (-5C) with 6×His tag and GS linker (canine).
T2 construct: 5 amino acids deleted from the C terminal
T2 peptide: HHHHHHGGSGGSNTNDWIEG
The assay is described as above.

Assay [6] addresses T3, Peptide (-2C) with 6×His tag and GS linker (canine).
T3 construct: 2 amino acids deleted from the C terminal
T3 peptide: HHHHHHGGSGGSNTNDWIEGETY
The description is as above.

Assay [7] has as its target T4, Peptide (-4) with 6×His tag and GS linker (canine).
T4 construct: 4 amino acids deleted from the N terminal of Peptide-full
T4 peptide: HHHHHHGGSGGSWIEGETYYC
Described as above.

Assay [8] concerns the target T5, Peptide (-3C) with 6×His tag and GS linker (canine).
T5 construct: 3 amino acids deleted from the C terminal
T5 peptide: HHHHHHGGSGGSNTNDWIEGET
Described as above.

Assay [9] has as its target T6, Peptide (-1C) with 6×His tag and GS linker (canine).
T6 construct: 1 amino acid deleted from the C terminal
T6 peptide: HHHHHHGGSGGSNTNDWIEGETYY
The description is as above.

The target in assay [10] is feline serum IgE antibody of allergy cases, after heating (feline). Description: IgE ELISA of feline serum on immobilised Dermatophagoides Farinae allergen, 6C12 detection; Allergy case, Cat 3.
In assay [11] the target is non-heated Der f 2-IgE antibody in experimental canine serum (beagles sensitized with Der f 2 and alum) (canine). Description: Der f 2-IgE ELISA, serum before heating, specimen containing non-pathogenic IgE antibody.
Assay [12] has as its target feline serum IgE antibody of allergy cases, after heating (feline). Description: IgE ELISA of feline serum on immobilised Dermatophagoides Farinae allergen, 6C12 detection; Allergy case, Cat 1.
The target of assay [13] is heated (56° C., 15 minutes) Der f 2-IgE antibody in clinical-case serum of allergic dogs (canine). Nature of the assay: Der f 2-IgE ELISA, serum after heating, specimen containing pathogenic IgE antibody.

B1: 6C12 (monoclonal antibody produced from hybridoma clone 6C12, mouse IgG1κ) (antibody, V domains shown)
VH: EVQLVESGGGLVQPKGSLKLSCAASGFNFNAYVMNWVRQAPGKGLEWVSRIRSKSNNYATYYADSVKDRFTISRDDSESMLYLQMNNLKTEDTAMYYCVRPDYYGGSPFAYWGQGTLVTVSA
VL: QIVLTQSPAIMSASPGEKVTISCSASSSVSYMYWYQQKPGSSPKPWIYRTSNLASGVPARFGGSGSGTSYSLTISSMEAEDAATYYCQQYHSYPPTFGVGTKLELK
notes: Mouse IgG1κ purified from ascites on Protein G; used biotin-labelled (ELISA, flow cytometry) or FITC-labelled (RBL-2H3); 129-174); also called 6C12 antibody; purified 6C12
For the molecule B1, the IgE level detected by 6C12, After heating turned out to be 34 ng/mL in assay [1], 91 ng/mL in assay [10] and 89 ng/mL in [12]. Besides, the Der f 2-IgE concentration detected by 6C12 in assay [2] amounted to 1050 ng/mL; in [3], 0 ng/mL; in assay [11], 1050 ng/mL; in [13], 848 ng/mL. In addition, the binding result in assay [4], in assay [5], in assay [6], in assay [7], in assay [8] and in [9] was “no binding” throughout.
